{"source": "patent US20070274991A1", "about": "(published 2007)", "binders": {"B1": {"name": "EMD72000 (antibody, V domains shown)", "VH": "QVQLVQSGAEVKKPGASVKVSCKASGYTFTSHWMHWVRQAPGQGLEWIGEFNPSNGRTNYNEKFKSKATMTVDTSTNTAYMELSSLRSEDTAVYYCASRDYDYDGRYFDYWGQGTLVTVS", "VL": "DIQMTQSPSSLSASVGDRVTITCSASSSVTYMYWYQQKPGKAPKLLIYDTSNLASGVPSRFSGSGSGTDYTFTISSLQPEDIATYYCQQWSSHIFTFGQGTKVEIK", "notes": "Used fluorescently labeled in yeast display and radiolabeled in the internalization assay; also called anti-EGFR antibody EMD72000; humanized version of the murine antibody 425"}}, "biological_target": "T1, intact EGFR expressed on human mammary epithelial cells (HMECs) (human, UniProt P00533 25-1210)", "T1 construct": "whole, on cells; also called wild-type EGFR", "assay": "radiolabeled antibody on parental HMECs", "method": "To measure the effect on EGFR and EGFRvIII signaling of a given antibody binding to EGFR or EGFRvIII, radiolabeled antibodies were added to cultures of the HMECs described in the table above. […] When a non-neutralizing radiolabeled antibody binds to EGFR on a mammalian cell, the antibody will be internalized at a high rate if a ligand is present or if the EGFR is constitutively signaling for some other reason. When a neutralizing radiolabeled antibody binds to EGFR, signaling will stop and signaling-stimulated endocytosis will also stop.\nIn brief, radiolabelled antibodies were added to culture parental HMECs and to HMECs expressing EGFRvIII. At times of 0, 1, 2, 3, 5 and 10 minutes, cell samples were withdrawn, washed, and then acid-stripped to remove and measure surface-bound radiolabeled antibody. The cells were then lysed and the remaining radiolabel was measured to determine levels of internalized antibody.", "data": [{"binder": "B1", "values": [{"measurement": "binding result", "value": "binds"}]}]}
